Measurements taken from paper PMC12865133, “Macrocyclic Molecular Glues for the 14‐3‐3/ChREBP Interaction: Affinity and Cooperativity in an Inverse Relationship” (Angewandte Chemie (International Ed. in English), 2025).
Where no end group is shown, it is not given here. [ ]: non-standard residue; d: D form. pT = C[C@@H](OP(=O)(O)O)[C@H](N)C(=O)O; pS = N[C@@H](COP(=O)(O)O)C(=O)O

T1: full-length human 14-3-3β protein with a N-terminal His6 tag (human, UniProt P31946 1-246)
T1 construct: 14-3-3 protein beta/alpha, human, full length; Treated as a dimer in the thermodynamic model (Pp = 14-3-3 dimer); also called Pp (14-3-3 dimer); source: E. coli BL21(DE3), pPROEX HTb, purified (Ni-NTA, dialysis)
T1 sequence (looked up): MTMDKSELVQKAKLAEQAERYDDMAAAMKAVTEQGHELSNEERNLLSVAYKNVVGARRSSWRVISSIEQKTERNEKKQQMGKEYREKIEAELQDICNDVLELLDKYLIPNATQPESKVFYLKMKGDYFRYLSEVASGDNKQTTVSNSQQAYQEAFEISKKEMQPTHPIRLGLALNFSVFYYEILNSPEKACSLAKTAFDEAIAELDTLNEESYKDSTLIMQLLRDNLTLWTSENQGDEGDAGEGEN

T2: 14-3-3γ (UniProt P61981 1-247)
T2 construct: 14-3-3 protein, gamma isoform; also called 14-3-3 protein
T2 sequence (looked up): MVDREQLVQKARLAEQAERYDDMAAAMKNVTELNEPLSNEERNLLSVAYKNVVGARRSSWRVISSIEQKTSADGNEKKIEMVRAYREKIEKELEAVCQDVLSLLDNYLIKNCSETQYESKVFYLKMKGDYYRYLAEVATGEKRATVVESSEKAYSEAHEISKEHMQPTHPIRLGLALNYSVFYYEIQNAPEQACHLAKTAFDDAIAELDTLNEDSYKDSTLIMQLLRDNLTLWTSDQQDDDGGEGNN


Target: T1, full-length human 14-3-3β protein with …
Experiment: fluorescence polarisation; 2D fluorescence anisotropy titration, replicate 1: 14-3-3β titrated (from 250 µM) to FITC-labeled macrocycle or pepD with varying ChREBP peptide starting at 20 μM; KD I (binary affinity of the macrocycle for a site of the 14-3-3 dimer) fitted by the thermodynamic cooperativity model with KD II fixed at 1.5 µM; 10 mM HEPES pH 7.4, 150 mM NaCl, 0.1% Tween20, 0.1% BSA; room temperature
Details: both partners purified

Row | Binder | Kd
1 | SFSXFKXK (not fully specified; phosphoserine; Phe(+1) triazole cyclised to the backbone amide nitrogen of Lys(+5) through a linker x = 4 (from 5-hexyn-1-ol); β-homoSer(+2); β-Ala(+3); Nph(+4); β-Ala and a lysine whose side chain carries fluorescein isothiocyanate (FITC) after Lys(+5)) [fluorescently labeled macrocycle F4] | 5 µM
2 | SFSXFKXK (not fully specified; phosphoserine; Phe(+1) triazole cyclised to the backbone amide nitrogen of Lys(+5) through a linker x = 2 (from 3-butyn-1-ol); β-homoSer(+2); β-Ala(+3); Nph(+4); β-Ala and a lysine whose side chain carries fluorescein isothiocyanate (FITC) after Lys(+5)) [fluorescently labeled macrocycle F2] | 12.6 µM
3 | SFSXFKXK (not fully specified; phosphoserine; Phe(+1) triazole cyclised to the backbone amide nitrogen of Lys(+5) through a linker x = 3 (from 4-pentyn-1-ol); β-homoSer(+2); β-Ala(+3); Nph(+4); β-Ala and a lysine whose side chain carries fluorescein isothiocyanate (FITC) after Lys(+5)) [fluorescently labeled macrocycle F3] | 0.63 µM
4 | SFSXFKXK (not fully specified; phosphoserine; Phe(+1) triazole cyclised to the backbone amide nitrogen of Lys(+5) through a linker x = 1 (from propargyl alcohol); β-homoSer(+2); β-Ala(+3); Nph(+4); β-Ala and a lysine whose side chain carries fluorescein isothiocyanate (FITC) after Lys(+5)) [fluorescently labeled macrocycle F1] | 71 µM

Target: T2, 14-3-3γ
Experiment: fluorescence polarisation; fluorescence anisotropy; 14-3-3γ titrated to FITC-labeled macrocycles F1-F4 and pepD (10 nM); mean ± SD, n = 3
Details: both partners purified

Row | Binder | Kd
5 | SFSXFKXK (not fully specified; fluorescein isothiocyanate (FITC) on the side chain of the first lysine; β-alanine after it; phosphoserine; triazole from azido phenylalanine (replacing Nph(+1)) cyclised to the backbone amide nitrogen between Lys(+5) and Nph(+4), linker x = 3; β-homoSer(+2); β-Ala(+3); 4-nitrophenylalanine Nph(+4)) [macrocycle F3] | 230 nM
6 | SFSXFKXK (not fully specified; fluorescein isothiocyanate (FITC) on the side chain of the first lysine; β-alanine after it; phosphoserine; triazole from azido phenylalanine (replacing Nph(+1)) cyclised to the backbone amide nitrogen between Lys(+5) and Nph(+4), linker x = 2; β-homoSer(+2); β-Ala(+3); 4-nitrophenylalanine Nph(+4)) [macrocycle F2] | 5700 nM
7 | SFSXFKXK (not fully specified; fluorescein isothiocyanate (FITC) on the side chain of the first lysine; β-alanine after it; phosphoserine; triazole from azido phenylalanine (replacing Nph(+1)) cyclised to the backbone amide nitrogen between Lys(+5) and Nph(+4), linker x = 4; β-homoSer(+2); β-Ala(+3); 4-nitrophenylalanine Nph(+4)) [macrocycle F4] | 2100 nM

Target: T1, full-length human 14-3-3β protein with …
Experiment: fluorescence polarisation; selectivity assay by fluorescence anisotropy: acetylated 14-3-3 client peptides titrated (from 100 μM, 2-fold) to 10 nM FITC-labeled macrocycle F2 or F4 bound to 14-3-3β (7 μM for 2, 2 μM for 4); 10 mM HEPES pH 7.4, 150 mM NaCl, 0.1% Tween20, 0.1% BSA; room temperature
Details: both partners purified

Row | Binder | binding result
8 | Ac-RDKIRLNNAIWRAWYIQYVKRRKSPV-NH2 (also called S (in the model); source: synthetic peptide, bought: GenScript Biotech Corp) [acetylated ChREBP peptide] | binds
9 | Ac-KRRRK[pS]CQA-NH2 (SMILES CC(=O)N[C@@H](CCCCN)C(=O)N[C@@H](CCCNC(=N)N)C(=O)N[C@@H](CCCNC(=N)N)C(=O)N[C@@H](CCCNC(=N)N)C(=O)N[C@@H](CCCCN)C(=O)N[C@@H](COP(=O)(O)O)C(=O)N[C@@H](CS)C(=O)N[C@@H](CCC(N)=O)C(=O)N[C@@H](C)C(N)=O, ERRγ (estrogen-related receptor gamma), 14-3-3 client peptide; source: synthetic peptide, bought: GenScript Biotech Corp) [ERRγ client peptide] | binds
10 | Ac-EGFPA[pT]V-OH (SMILES CC(=O)N[C@@H](CCC(=O)O)C(=O)NCC(=O)N[C@@H](Cc1ccccc1)C(=O)N1CCC[C@H]1C(=O)N[C@@H](C)C(=O)N[C@H](C(=O)N[C@H](C(=O)O)C(C)C)[C@@H](C)OP(=O)(O)O, ERα (estrogen receptor alpha), 14-3-3 client peptide; source: synthetic peptide, bought: GenScript Biotech Corp) [ERα client peptide] | binds
11 | Ac-RDRSS[pS]APNVH-NH2 (SMILES CC(=O)N[C@@H](CCCNC(=N)N)C(=O)N[C@@H](CC(=O)O)C(=O)N[C@@H](CCCNC(=N)N)C(=O)N[C@@H](CO)C(=O)N[C@@H](CO)C(=O)N[C@@H](COP(=O)(O)O)C(=O)N[C@@H](C)C(=O)N1CCC[C@H]1C(=O)N[C@@H](CC(N)=O)C(=O)N[C@H](C(=O)N[C@@H](Cc1c[nH]cn1)C(N)=O)C(C)C, B-RAF, 14-3-3 client peptide; source: synthetic peptide, bought: GenScript Biotech Corp) [B-RAF client peptide] | binds
12 | Ac-HVRSH[pS]SPASLQLG (TAZ, 14-3-3 client peptide; No C-terminal group is printed for this peptide; source: synthetic peptide, bought: GenScript Biotech Corp) [TAZ client peptide] | binds
13 | Ac-KLKRSY[pS]SPDITQ-NH2 (SMILES CC[C@H](C)[C@H](NC(=O)[C@H](CC(=O)O)NC(=O)[C@@H]1CCCN1C(=O)[C@H](CO)NC(=O)[C@H](COP(=O)(O)O)NC(=O)[C@H](Cc1ccc(O)cc1)NC(=O)[C@H](CO)NC(=O)[C@H](CCCNC(=N)N)NC(=O)[C@H](CCCCN)NC(=O)[C@H](CC(C)C)NC(=O)[C@H](CCCCN)NC(C)=O)C(=O)N[C@H](C(=O)N[C@@H](CCC(N)=O)C(N)=O)[C@@H](C)O, USP8, 14-3-3 client peptide; source: synthetic peptide, bought: GenScript Biotech Corp) [USP8 client peptide] | binds
14 | Ac-QGLLDALDLAS-NH2 (ExoS (exoenzyme S), 14-3-3 client peptide; source: synthetic peptide, bought: GenScript Biotech Corp) [ExoS client peptide] | binds
15 | Ac-RPRTQ[pS]APHRRRPP-NH2 (SMILES CC(=O)N[C@@H](CCCNC(=N)N)C(=O)N1CCC[C@H]1C(=O)N[C@@H](CCCNC(=N)N)C(=O)N[C@H](C(=O)N[C@@H](CCC(N)=O)C(=O)N[C@@H](COP(=O)(O)O)C(=O)N[C@@H](C)C(=O)N1CCC[C@H]1C(=O)N[C@@H](Cc1c[nH]cn1)C(=O)N[C@@H](CCCNC(=N)N)C(=O)N[C@@H](CCCNC(=N)N)C(=O)N[C@@H](CCCNC(=N)N)C(=O)N1CCC[C@H]1C(=O)N1CCC[C@H]1C(N)=O)[C@@H](C)O, NOTCH4, 14-3-3 client peptide; source: synthetic peptide, bought: GenScript Biotech Corp) [NOTCH4 client peptide] | binds

Target: T1, full-length human 14-3-3β protein with …
Experiment: fluorescence polarisation; 2D fluorescence anisotropy titration, replicate 2: 14-3-3β titrated (from 250 µM) to FITC-labeled macrocycle or pepD with varying ChREBP peptide starting at 10 μM; KD I (binary affinity of the macrocycle for a site of the 14-3-3 dimer) fitted by the thermodynamic cooperativity model with KD II fixed at 1.5 µM; 10 mM HEPES pH 7.4, 150 mM NaCl, 0.1% Tween20, 0.1% BSA; room temperature
Details: both partners purified

Row | Binder | Kd
16 | SFSXFKXK (not fully specified; phosphoserine; Phe(+1) triazole cyclised to the backbone amide nitrogen of Lys(+5) through a linker x = 2 (from 3-butyn-1-ol); β-homoSer(+2); β-Ala(+3); Nph(+4); β-Ala and a lysine whose side chain carries fluorescein isothiocyanate (FITC) after Lys(+5)) [fluorescently labeled macrocycle F2] | 11.9 µM
17 | SFSXFKXK (not fully specified; phosphoserine; Phe(+1) triazole cyclised to the backbone amide nitrogen of Lys(+5) through a linker x = 3 (from 4-pentyn-1-ol); β-homoSer(+2); β-Ala(+3); Nph(+4); β-Ala and a lysine whose side chain carries fluorescein isothiocyanate (FITC) after Lys(+5)) [fluorescently labeled macrocycle F3] | 0.38 µM
18 | SFSXFKXK (not fully specified; phosphoserine; Phe(+1) triazole cyclised to the backbone amide nitrogen of Lys(+5) through a linker x = 1 (from propargyl alcohol); β-homoSer(+2); β-Ala(+3); Nph(+4); β-Ala and a lysine whose side chain carries fluorescein isothiocyanate (FITC) after Lys(+5)) [fluorescently labeled macrocycle F1] | 73 µM
